Results: patent US9777044B2, “GLUT-1 as a receptor for HTLV envelopes and its uses” (CENTRE NATIONAL DE LA RECHERCHE SCIENTIFIQUE (CNRS), priority 2003, dated 2017)
Positions count from the first letter of the chain named. Numbers in names are those of the source.

Experiments:
[1] = target: T1, GLUT-1 (Homo sapiens, UniProt P11166); experiment: Colocalization with GLUT-1 by fluorescence microscopy; assay type: cell-based
T1 construct: factor Xa cleavage site (C); His (C); expressed in transfected cells
T1 sequence (P11166 1-492): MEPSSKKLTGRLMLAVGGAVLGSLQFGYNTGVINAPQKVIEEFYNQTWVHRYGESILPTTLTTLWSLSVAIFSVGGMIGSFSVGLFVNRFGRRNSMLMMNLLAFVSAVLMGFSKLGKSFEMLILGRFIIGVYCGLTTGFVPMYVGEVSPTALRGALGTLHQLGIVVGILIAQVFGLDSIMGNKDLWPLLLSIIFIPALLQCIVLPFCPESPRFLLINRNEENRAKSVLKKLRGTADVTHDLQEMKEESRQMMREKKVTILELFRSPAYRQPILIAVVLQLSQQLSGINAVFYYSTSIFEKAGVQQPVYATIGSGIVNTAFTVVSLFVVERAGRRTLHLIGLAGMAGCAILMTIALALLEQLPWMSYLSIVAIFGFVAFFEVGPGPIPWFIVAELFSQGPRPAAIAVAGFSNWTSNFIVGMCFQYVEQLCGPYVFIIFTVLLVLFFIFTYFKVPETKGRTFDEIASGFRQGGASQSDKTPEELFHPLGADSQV
Excerpt: (§1) In order to directly test the ability of HTLV envelopes to bind GLUT-1, we derived a tagged GLUT-1 expression vector and overexpressed this protein in HeLa cells. […] GLUT-3 is the closest isoform to GLUT-1, and transports glucose with kinetics similar to that of GLUT-1. Thus, we derived a tagged GLUT-3 expression vector. […] To determine if GLUT-1 transfected cells were directly responsible for the observed increased in H1RBD binding, we derived fluorescent tagged GLUT-1 and GLUT-3 to uniquevocally identity GLUT-overexpressing cells in the course of our FACS analysis. […] Consequently, we tested if HTLV glycoproteins directly interact with GLUT-1 proteins. To this end, we evaluated the ability of H1RBD to immunoprecipitate GLUT-1. […] Therefore, the GLUT-1 glucose transporter is an essential component of the HTLV envelope receptor.

[2] = test system: PiT2; experiment: Colocalization with PiT2 by fluorescence microscopy; assay type: cell-based
[3] = test system: 293T cells; experiment: Hexose uptake assay: 2-deoxyglucose; assay type: cell-based, human; settings: for glucose uptake in presence of glucose transporter inhibitors: control 293T cells, 20 μM cytochalasin B, 300 μM phloretin
Protocol: (§2) Assay of hexose uptake. 2-deoxy-D[1-^3H]glucose, D[U-^14C]fructose and 3-O-[^14C]methyl-D-glucose were obtained from Amersham. Hexose uptake assay were adapted from Harrison et al. 1991). After transfection, approximately 250,000 were seeded/well in 24-well plates. […] Uptake was initiated by adding labeled hexoses to a final concentration of 0.1 mM (2 μCi/ml for 2-2-deoxy-D[1-^3H]glucose and 0.2 μCi/ml for D[U-^14C]fructose and 3-O-[^14C]methyl-D-glucose) and cells were incubated for 5′ additional minutes. Cells were then resuspended in 500 μl cold serum-free glucose-free DMEM, wash one time in serum-free glucose-free DMEM, and solubilized in 400 μl of 0.1% SDS. 3 μl was used for Bradford normalization, while the rest was used for detection of either ^3H or ^14C by liquid scintillation in a Beckman counter.

[4] = test system: 293T cells; experiment: Medium acidification after transfection of envelope expression vectors; assay type: cell-based, human; settings: 293T cells transfected with envelope expression vector; phenol-red pH indicator
[5] = test system: 293T cells; experiment: Extracellular lactate in culture medium of transfected cells; assay type: cell-based, human; settings: medium of 293T cells one day post transfection
Protocol: Envelope expression and metabolic measurements. 293T cells were transfected with the various envelope expression vectors using a modified version of the calcium phosphate method. After an overnight transfection, cells were washed in phosphate-buffered saline (PBS) and fresh medium was added. Media were harvested at the indicated time points, filtered through a 0.45-μm pore-size filter, and lactate and glucose were measured with enzymatic diagnostic kits (Sigma). Values were normalized to cellular protein content using the Bradford assay (Sigma) after solubilization of cells in lysis buffer (50 mM Tris-HCl pH 8.0, 150 mM NaCl, 0.1% sodium dodecyl sulfate, 1.0% Nonidet P-40, 0.5% deoxycholate) and clarification by centrifugation.

[6] = target: T2, HTLV receptor (Homo sapiens, UniProt P11166); experiment: FACS binding assay of RBD and mutants on HeLa cells
T2 construct: endogenous in cells; host or cells: HeLa cells
T2 sequence (P11166 1-492): T1 sequence (P11166 1-492)
Protocol: Binding assays. Binding assays were carried out as previously described [Manel, 2003]. Briefly, 5×10^5 cells (293T, HeLa, Jurkat or freshly isolated human erythrocytes) were incubated with 500 μl of H1RBD, H2RBD or ARBD supernatants for 30 min at 37° C., washed with PBA (1% BSA, 0.1% sodium azide in PBS), and incubated with a sheep anti-rabbit IgG antibody conjugated to fluorescein isothiocyanate (Sigma). […] Binding was analyzed on a FACSCalibur (Becton Dickinson) and data analysis was performed using CellQuest (Becton Dickinson) and WinMDI (Scripps) softwares.

[7] = target: T1, GLUT-1; experiment: RBD binding to cells overexpressing GLUT-1; settings: tagged GLUT-1 expression vector, HeLa cells / 293T cells (FIG. 4a legend)
Excerpt: as §1
Expression vectors. Full length envelope expression vectors for HTLV-1 (pCEL/2[Denesvre, 1995]) and Friend ecotropic MLV (pCEL/F [Denesvre, 1995]), have been previously described. For the HTLV-2 envelope, a fragment from pHTE2 [Rosenberg, 1998] encompassing the tax, rex and env genes and the 3′ LTR was inserted in the pCSI [Battini, 1999] vector (pCSIX.H2). Full length envelope expression vectors for amphotropic MLV (pCSI.A), or devoid of its R peptide (pCSI.AΔR), and H183FEnv that contains the N-terminal 183 amino acids of the HTLV-1 receptor-binding domain in the F-MLV envelope background, as well as truncated envelope expression vectors, derived from pCSI and encoding either of the first 215 residues of HTLV-1 SU (H1RBD), the first 178 residues of HTLV2-SU (H2RBD) or the first 397 residues of the amphotropic murine leukemia virus (MLV) SU (Amp), fused to a C-terminal rabbit IgG Fc tag (rFc) or to EGFP (H2RBD-GFP). All point mutations introduced in HTLV-1 and -2 RBD constructs were generated using the quickchange site-directed mutagenesis method and mutations were verified by sequencing. Human Glut-1 and Glut-3 cDNA were amplified by PCR from the pLib HeLa cDNA library (Clontech), and inserted into pCHIX, a modified version of the pCSI vector that contains a cassette comprising a factor Xa cleavage site, two copies of the hemagglutinin (HA) tag, and a histidine tag. The resulting construct (pCHIX.hGLUT1) encodes a GLUT-1 protein with a HA-His tag at the C-terminal end. GLUT-1 and GLUT-3 were also inserted in a modified pCSI vector containing a DsRed2 C-terminal tag. Similarly, human CD147 was amplified from 293T total RNA by RT-PCR and inserted into the pCHIX backbone in frame with the HA-His tag (pCHIX.hCD147).
Binding assays. […] Binding was analyzed on a FACSCalibur (Becton Dickinson) and data analysis was performed using CellQuest (Becton Dickinson) and WinMDI (Scripps) softwares.

[8] = target: T1, GLUT-1; experiment: Immunoprecipitation of GLUT-1-HA with anti-rabbit-Fc beads; assay type: binding; settings: co-expression with GLUT-1 in 293T cells, probed with anti-HA antibody
Excerpt: FIGS. 4a-4c GLUT-1 is a receptor for HTLV envelopes. FIG. 4a, Binding of H1RBD, H2RBD, H2RBD D102A mutant, and ARBD to control 293T cells or 293T cells overexpressing either GLUT-1 or PiT2. FIG. 4b, Binding of H2RBD-EGFP to cells overexpressing GLUT-1-HA or GLUT-3-HA, and corresponding immunoblots using an anti-HA antibody. FIG. 4c, Immunoprecipitation of GLUT-1-HA from 293T cells transfected with either an irrelevant construct, GLUT-1 alone, H1RBD alone, H1RBD Y114A alone, GLUT-1 with H1RBD or GLUT-1 with H1RBD Y114A expression vectors Immunoprecipitation was performed using anti-rabbit-Fc beads and probed with an anti-HA antibody. Total cell extracts were blotted using an anti-rabbit Fc or an anti-HA antibody.
In order to directly test the ability of HTLV envelopes to bind GLUT-1, we derived a tagged GLUT-1 expression vector and overexpressed this protein in HeLa cells. […] GLUT-3 is the closest isoform to GLUT-1, and transports glucose with kinetics similar to that of GLUT-1. Thus, we derived a tagged GLUT-3 expression vector. […] To determine if GLUT-1 transfected cells were directly responsible for the observed increased in H1RBD binding, we derived fluorescent tagged GLUT-1 and GLUT-3 to uniquevocally identity GLUT-overexpressing cells in the course of our FACS analysis. […] To this end, we evaluated the ability of H1RBD to immunoprecipitate GLUT-1. […]

[9] = test system: 293T cells; experiment: Hexose uptake assay: fructose; assay type: cell-based, human; settings: transfected 293T cells
Protocol: as §2

[10] = test system: PiT2; experiment: RBD binding to cells overexpressing PiT2
[11] = test system: MLV particles pseudotyped with HTLV-2 envelopes; experiment: Interference to infection by HTLV-2 envelope pseudotyped MLV particles; assay type: cell-based; settings: 293T cells transfected with H2RBD expression vector
Excerpt: (§3) Viral receptor permits entry and thus infection. No cellular system currently exists that lacks GLUT-1 expression. […] In this system, over-expression of HTLV-2 RBD interferes with infecting incoming HTLV particles and specifically decreases HTLV titers by at least 2 logs, while no effect is detected on control A-MLV titers. To determine if GLUT-1 is an entry receptor for HTLV, we overexpressed GLUT-1, GLUT-3 or Pit2 in addition to the interfering H2RBD. While Pit2 and GLUT-3 had no effect on HTLV titers, GLUT-1 completely alleviated the interference to infection induced by H2RBD (FIG. 5). […] Thus, GLUT-1 is an entry receptor for HTLV.
(§4) Infections. 293T cells were transfected in 6-wells plate, and one day after transfection, medium was replaced by high glucose DMEM supplemented with fructose (5 g/l) and non-essential amino acids. The next day, infection was initiated by adding supernatants containing MLV particles pseudotyped with either HTLV-2 or A-MLV envelopes. The following day, fresh medium was added, and 24 hours later cells were fixed and stained for alkaline phosphatase activity and dark focus of infection were counted. Viral particles were obtained by transfecting 293T cells with pLAPSN, pGagPol and either pCSIX.H2 or pCSI.A, and harvesting the 0.45 μm-filtered supernatants 24 hours later.

[12] = test system: MLV particles pseudotyped with A-MLV envelopes; experiment: Interference to infection by A-MLV envelope pseudotyped MLV particles; assay type: cell-based; settings: 293T cells transfected with H2RBD expression vector
Excerpt: as §3, §4

GFP-tagged HTLV-2 RBD
colocalization with GLUT-1 [1]: colocalized with GLUT-1 | colocalization with PiT2 [2]: not with PiT2

C=C1[C@@H](C)[C@H]2[C@H](Cc3ccccc3)NC(=O)[C@]23OC(=O)/C=C/[C@H](O)CCC[C@@H](C)C/C=C/[C@H]3[C@@H]1O [cytochalasin B, reference compound]
glucose uptake in presence of glucose transporter inhibitors [3]: inhibited glucose uptake

O=C(CCc1ccc(O)cc1)c1c(O)cc(O)cc1O [phloterin, phloretin, reference compound]
glucose uptake in presence of glucose transporter inhibitors [3]: inhibited glucose uptake

HTLV-2 Env: full length syncytial wild-type HTLV-2 envelope (pCSIX.H2) (MKWVTFISLLFLFSSAYS)
medium acidification [4]: did not readily acidify

B1: D106A (protein)
chain: DYSPSCCTLTIGVSSYHSKPCNPAQPVCSWTLDLLALSADQALQPPCPNLVSYSSYHATYSLYLFPHWIKKPNRNGGGYYSASYSAPCSLKCPYLGCQSWTCPYTGAVSSPYWKFQQDVNFTQEVSRLNINLHFSKCGFPFSLLVDAPGYDPIWFLNTEPSQLPPTAPPLLPHSNLDHILEPSIPWKSKLLTLVQ
lactate accumulation in cells expressing RBD mutant [5]: minimally reduced | binding to the HTLV receptor as detected by FACS analysis [6]: significantly reduced | binding upon GLUT-1 overexpression [7]: did not bind GLUT-1

B2: Y114A (protein)
chain: B1 chain with A86D, Y94A
lactate accumulation in cells expressing RBD mutant [5]: not reduced | binding to the HTLV receptor as detected by FACS analysis [6]: non-detectable | detection of GLUT-1 upon immunoprecipitation with anti-rabbit-Fc-beads [8]: could not be detected

B3: H2RBD: first 178 residues of HTLV2-SU fused to a C-terminal rabbit IgG Fc tag (rFc) (protein)
chain: VDVPRDCGCKPCICTVPEVSSVFIFPPKPKDVLTITLTPKVTCVVVDISKDDPEVQFSWFVDDVEVHTAQTQPREEQFNSTFRSVSELPIMHQDWLNGKEFKCRVNSAAFPAPIEKTISKTKGRPKAPQVYTIPPPKEQMAKDKVSLTCMITDFFPEDITVEWQWNGQPAENYKNTQPIMDTDGSYFVYSKLNVQKSNWEAGNTFTCSVLHEGLHNHHTEKSLSHSPGK
decrease in 2-deoxyglucose uptake ([3]; transfected 293T cells vs control cells): approximately 4 fold | Fructose uptake [9]: not altered | binding upon GLUT-1 overexpression [7]: dramatically increased | binding upon overexpression of PiT2 [10]: remained at background levels | decrease of HTLV titers by over-expression of interfering RBD [11]: at least 2 logs | effect on control A-MLV titers [12]: no effect
